Experiments:
SUMO-C-CA (HIV-1) [1] = assay: HPSEC affinity selection, 50*7.8mm BIO-SEC-3 column, peptide quantified by LC-MS in the protein fraction
[2] = target: Trypsin from bovine pancreas (bovine) (UniProt P00760); assay: Trypsin inhibition assay
SUMO-C-CA (HIV-1) [3] = assay: BLI, biotinylated peptide immobilized on streptavidin sensors, SUMO-C-CA in solution
SUMO-C-CA (HIV-1) [4] = assay: BLI, C-terminally biotinylated peptide immobilized
SUMO-C-CA (HIV-1) [5] = assay: BLI, peptide on streptavidin sensors, global fit

Chain of Trypsin from bovine pancreas (bovine) (P00760 24-246): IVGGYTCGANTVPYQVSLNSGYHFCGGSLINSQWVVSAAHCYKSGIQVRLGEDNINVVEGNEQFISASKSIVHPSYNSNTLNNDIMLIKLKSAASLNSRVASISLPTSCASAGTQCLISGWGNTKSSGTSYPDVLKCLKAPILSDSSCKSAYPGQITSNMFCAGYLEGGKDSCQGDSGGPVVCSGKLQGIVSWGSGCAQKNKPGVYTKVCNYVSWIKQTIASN

Selection yield (%) (SUMO-C-CA (HIV-1) [1])	Kd [2] [µM]	Kd (SUMO-C-CA (HIV-1) [3]) [µM]	Kd (SUMO-C-CA (HIV-1) [4]) [µM]	Kd (SUMO-C-CA (HIV-1) [5]) [µM]	Substance
0.5					CAI (37) (peptide)
	0.00093				EETI-II-diol (59) (from UniProt P12071 1-28) (peptide)
		2.3	2.3	2.2	peptide 37a (biotinylated CAI)
		5.8		5	peptide NYAD (37a-M)

Source: patent US20190300576A1
